From patent publication EP3733708A1

Experiments:
[1] = target: Recombinant Human PD-1 (R&D Systems Inc) (human) (UniProt Q15116); test: ELISA blocking, PD-1 coated, biotinylated PD-L1Fc, streptavidin-HRP; antibody at 1 ng/ml
[2] = target: Recombinant Human PD-1 (R&D Systems Inc) (human) (UniProt Q15116); test: ELISA blocking, PD-1 coated, biotinylated PD-L1Fc, streptavidin-HRP; antibody at 0.001 ng/ml
[3] = target: Recombinant Human PD-1 (R&D Systems Inc) (human) (UniProt Q15116); test: ELISA blocking, PD-1 coated, biotinylated PD-L1Fc, streptavidin-HRP; antibody at 1000 ng/ml
[4] = target: Recombinant Human PD-1 (R&D Systems Inc) (human) (UniProt Q15116); test: second ELISA blocking assay, PD-1 / PD-L1Fc; reference: unlinked mix of 9E3 and 3H4
[5] = target: Recombinant Human PD-1 (R&D Systems Inc) (human) (UniProt Q15116); test: ELISA blocking, PD-1 coated, biotinylated PD-L1Fc, streptavidin-HRP; antibody at 0.1 ng/ml
[6] = target: Recombinant Human PD-1 (R&D Systems Inc) (human) (UniProt Q15116); test: ELISA blocking, PD-1 coated, biotinylated PD-L1Fc, streptavidin-HRP; antibody at 0.01 ng/ml
[7] = target: Recombinant Human PD-1 (R&D Systems Inc) (human) (UniProt Q15116); test: ELISA blocking, PD-1 coated, biotinylated PD-L1Fc, streptavidin-HRP; antibody at 10 ng/ml
[8] = target: Recombinant Human PD-1 (R&D Systems Inc) (human) (UniProt Q15116); test: ELISA blocking, PD-1 coated, biotinylated PD-L1Fc, streptavidin-HRP; antibody at 100 ng/ml
[9] = target: Recombinant Human PD-1 (R&D Systems Inc) (human) (UniProt Q15116); test: ELISA blocking, PD-1 coated, biotinylated PD-L1Fc, streptavidin-HRP; antibody at 10000 ng/ml

UniProt Q15116, sequence (Q15116 25-167 limits assumed): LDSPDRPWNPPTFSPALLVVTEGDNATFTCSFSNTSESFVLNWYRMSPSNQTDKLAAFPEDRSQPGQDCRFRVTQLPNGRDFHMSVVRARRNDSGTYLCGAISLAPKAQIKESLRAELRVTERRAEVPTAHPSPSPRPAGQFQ

| blocking ELISA signal (PD-L1Fc bound to PD-1) [1] | blocking ELISA signal (PD-L1Fc bound to PD-1) [2] | blocking ELISA signal (PD-L1Fc bound to PD-1) [3] | fold increase in blocking against a simple mix of 9E3 and 3H4 [4] [fold] | blocking ELISA signal (PD-L1Fc bound to PD-1) [5] | blocking ELISA signal (PD-L1Fc bound to PD-1) [6] | blocking ELISA signal (PD-L1Fc bound to PD-1) [7] | blocking ELISA signal (PD-L1Fc bound to PD-1) [8] | blocking ELISA signal (PD-L1Fc bound to PD-1) [9] | Binder |
| --- | --- | --- | --- | --- | --- | --- | --- | --- | --- |
| 1.09 | 1.11 | 0.103 | > 10 | 1.1 | 1.12 | 0.947 | 0.197 | 0.102 | Bispecific clone GS388 (9E3-17aa-3H4) (bispecific antibody) QLQLVEFGGGLVQAGGSLRLSCAASGSIFRGNAMVWYRQAPGKERELVATITNGGSTNYADSVKGRFTISRDNAKNTVYLQMNSLKPEDTAIYYCNDVIRGESGIYYPLNYWGQGTQVTVSSGGSEGGGSGGGGESGGGQVQFVESGGGLVQPGGSLRLSCAVSGSTFVVKHFAWFRQPPGNRRELVAATRGEGTTYYRDSVMGRFTISSDNPENTVYLQMTSLQPEDTAVYFCNVRSPGGEEFWGKGTLVTVSS |
| 1.06 | 1.17 | 0.457 |  | 1.08 | 1.11 | 1.09 | 0.965 | 0.104 | 9E3 single domain antibody (VHH) VHH: QLQLVEFGGGLVQAGGSLRLSCAASGSIFRGNAMVWYRQAPGKERELVATITNGGSTNYADSVKGRFTISRDNAKNTVYLQMNSLKPEDTAIYYCNDVIRGESGIYYPLNYWGQGTQVTVSS |
| 1.06 | 1.11 | 0.927 |  | 1.07 | 1.08 | 1.1 | 0.964 | 0.833 | 3H4 single domain antibody (VHH) VHH: QVQFVESGGGLVQPGGSLRLSCAVSGSTFVVKHFAWFRQPPGNRRELVAATRGEGTTYYRDSVMGRFTISSDNPENTVYLQMTSLQPEDTAVYFCNVRSPGGEEFWGKGTLVTVSS |
